Measured values from the nanobody polyreactivity screen of Harvey et al. (2022).

Assay: yeast display, Sf9 membrane polyspecificity reagent, FACS + sequencing; frameworks hold sequencing errors
Procedure, shortened: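 A nanobody's polyreactivity label depends on the gate it was sorted from. Yeast display cells were stained with 10% biotinylated, detergent-solubilized Sf9 membrane reagent for 1 hour at 4 °C, enriched on streptavidin microbeads and sorted by FACS. The low and high (top ~1%) gates were set on anti-HA fluorescence for expression and streptavidin fluorescence for reagent binding.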

| Sequence | polyreactivity (PSR sort gate) |
| --- | --- |
| QVQLVESGGGLVQAGGSLRLSCAASGSTFGRNVMGWYRQAPGKERELVAAISIRGGSTYYADSVKGRFTISRDNAKNTVYLQMNSLKPEDTAVYYCARDYPTDAYDYWGQGTQVTVSS | low polyreactivity |
| QVQLVESGGGLVQAGGSLRLRCAASGLTVRNYAMGWYRQAPRKERDLVAAISSGGGSTYYADSVKGRFTISRDNAKNTVYLQMNSLKPEDTAVYYCAAKRHTSLYVYYYWGQGTQVTVSS | high polyreactivity |
| QVQLVESGGGLVQAGGSLRLSCAASGFTRIYAMGWYRQAPGKERELVAAISQRGGRTYYADSVKGRFTISRDNAKNTVYLQMNSLKPEDTAVYYCNADRRSYNYPEYEYDYWGQGTQVTVSS | high polyreactivity |
| QDQHVDSGGGLVQAGGSLRLSCAASGFIFPQNAMGWYRQAPGKERELVAAISKRGGSTYYADSVKGRFTISRDNAKNTVYLQMNSLNPEDTAVYYCAVRYYFYRPGGYDYWGQGTQLTVSS | high polyreactivity |
| QVHLVESGGGLVQAGGSLRLSCAASGSIFDEYAMGWYRQAPGKERELVAAITSGGSTNYADSVKGRFTISRDNAKNTVYLQMNSLKPEDTAVYYCNVARQAKGMGYWGQGTEVTVSS | low polyreactivity |
| QVQLVESGGGLVQAGGSLRLSCAASGSTFFCYAMGWYRQAPGKERELVAAISRSGDRTYYADSVKGRFTISRDNAKNTVYLQMKSLKPEDTAVYYCAAKGFKPSDWGQGTQVTVSS | high polyreactivity |
| QVQLVESGGGLVQAGGSLRLSCAASGSILASYAMGWYRPAPGKERELVAAISWNGARSYYADSVKGRFTISRDNAKNTVYLQMNSLKPEDTAVYYCAGVRVGRTTFDYWGQGTQVTVSS | low polyreactivity |
| QVQRVESGGGLVQAGGSLRLSCAATGFTSGDYAMGWYRQAPGKERELVAAIDSDGSTNYADSVKGRFTISRDNAKNTVYLQMNSLKPEDTADYYCNAKRYGFFYWQGDYWGQGTQVTVSS | low polyreactivity |
| QVQLVESGGGLVQAGGSLRLSCSASGFTFFYYAMGWYRQAPGKERELVASISSGGSSTYYADSVKGRFTISRDNAKNTVYLQMNSLKPEDTAVYYFAATSRYRGSWYYYWGQGTQVTVSS | high polyreactivity |
| QVHLVESGAGLVQAGGSLRISCAASGIIFRLYGLGWYRQAPGKERELVAGINTGGSTSADSVKGRFTISRDNAKNTVYLQMNSLKPEDTAVYYCARDPGYYHPWYRYDYWGQGTQVTVSS | low polyreactivity |
| QVQLVESGGGLVQAGGSLRISCAASGSTFSYYAMGWYRQAPGKERELVAAISQTGGTTYYADSVKGRFTISRDNAKNTVYLQMNSLTPEDTAVYYSNAARPGGHYWGQGTQVTVSS | low polyreactivity |
| QVQLVESGGGLVQAGGSLRLSCAASGSTLWANAMGWYRQAPGKERELVAAISWRGGRTYYADSVKGRFTISRDNAKNTVYLQMNSLKPEDTAVYYCNAVSYYRPRSDYGGQGTQVTVSS | high polyreactivity |
| QVQLVESCGGLVQAGGSLRLSCAASGSTFRYNAMGWYRQAPGKERELVAAISWSGGSTYYADSVKGRFTISRDNAKNTVYLQMNSLKPEDTAVYYCAKVYFWGALSPDKFDEDYWGQGTQVTVSS | low polyreactivity |
| QVQLVESGGGLFQAGGSLRLSCAASGRILDYYAMGWYRQAPGKERELVAAIRRRGVITYADSVKGRFTISRDNAKNTVYLLMKSLKPEDTAVYYCAAGGYEYGYWGQGTQVTVSS | low polyreactivity |
| QVQLGESGGGLVQAGGSLRLSCAASGSTFVVYAMGWYRQAPGKERELVAAITRGASTTYADSVKGRFTISRDNAKNTVYLQMNSLKPEDTAVYYCAAAVAYEYLQSAYTRYYYWGQGTQVTVSS | high polyreactivity |
| QVQLVESGGGLVQAGGSLRLSCAASGNTYGRYAMGWYRQAPGKERELVAAISSSGTSTYYADSVKGRFTISRDNAKNTVYLQMNSLKPVDTAVYNCGAVYWTFWGTIASRYDYWGQGTQVTVAS | high polyreactivity |
| QVQLVESGGGLVQAGGSLRLSCAASVRIFGSNVMGWYRQAPGKERELVASISSGGTTYYADSVKGRFTISRDNAKNTVYLHMNSLKPEDTAVYYCAKQWTRIYQYRWYPGTRTGYDYWGQGTQVTVSS | high polyreactivity |
| QVQLVESGGGLVQAGGSLRLSCAASGSTFAYYAMGWYRQAPGKERELVAAINYRATRTYYADSVKGRFTISRDNAKNTVYLQMNSLKPEDTAVYYCAAVSPNTAYDYWGQGTQVTVSS | high polyreactivity |
| QVQLVESGGGLVQAGGSLRLSCAASGRIFYYNAMGWYRQAPGKERELVAAISGSGGRTYYADSVKGRFTISRDNAKNTVYLQMNSLKPEDTAVYYCAAAGYDSNGRYWGQGTQVTVSS | high polyreactivity |
| QVQLVESGGGLFQAGGSLRLSCSASGNTFVPYDMGWYRQAPGKERELVAGITSGGSTYYADSVKGRFTISRDNAKNTVYLQMNSLKPEDTAVYYCAADYYLWVYWYDYWGEGTQVTVSS | high polyreactivity |
| QVQLVESGGGLVQAGGSLRLSCAASGRTFVRYAMGWYRQAPGQERELVARITSRGTSTYYADSVKGRFTISRDNAKNTVYLQKNSLKPEDTAVYYCNKVRTFRDKSRYDYWGQGTQVTVSS | low polyreactivity |

| Sequence | polyreactivity (PSR sort gate) |
| --- | --- |
| QVHLVEAGVGLVQAGGSLRVSCAASGFTFCRYAMVWYRQAPGKERELVAAIRYSGSSTYYADSVKGRFTISRDNAKNTVYLQMNSLKPEDTAVYYCAKRYYGNDYWGQGTQVTVSS | high polyreactivity |
| QVQLVESGGGLVQAGGSLRLSCAASGSTFSVNAMGWYRQAPGKEREMVAAISSTGSTKYADSVKGRFTISRDNAKNTVYLQMNSLKPEDTAVYCAASNADYEYDPFSVWYFSPYDYWGQGTQVTVSS | low polyreactivity |
| QVQLVESGGGLVQAGGSLRLSCAASGSTFDKYTMGWYRQAPGKERELVATISRSGTSTNYADSVKGRFTISRDNAKNTVYLQLNSLKPEDTAVYYCAAVMRWRDLFSEYYYWGQGTQVTVSS | high polyreactivity |
| QVQLVESGGCLVQAGGSRRLSWAASGRIFDTYTMGWYRQAPGKERELVAAITSGGSTYYADSVKGRFTISRDNAMNTVYLQMNSLKPEDTAVYYCAARYRSIIRYYYWGQGTQVTVSS | high polyreactivity |
| QVQLVESGGGLVQSGGSLRLSCAASGRIFRYYAMGSYRQAPGKERELVSAITRGGSTNYADSVKGRFTISRDNAKNTVYLQMNSLKPEDTADYYCATRQSWYPRWMDYWGQGSQVTVSS | high polyreactivity |
| QVQLVESGGGLVQAGGSLRLSCAASGRIFKSYAMGWYRPAPGKERELVAAINWSGGSTYYADSVKGRFTISRDTAKNTVYLQMNSLKPEDTAVYYCNALYAVRSYDSWGQGTQVTVSS | high polyreactivity |
| QVQLVESGGGLVQAGGSLRLSCAASGRIFGLYVLGGYRQAPGKERELVAAIDDSGGDTYDADSVKGRFTISRDNAKNTVYIQMNSLKPEDTAVYYCPADYWGYYYGGYYYLRDYWGQGTQVTVSS | high polyreactivity |
| QVQLVESGGCLVQAGGSLRLSCAASGSTFTYNAMGGYRQAPGKERELVAGISWRGGRTYYADSVKGRFTISRDTAKNTVYLQMNSLKPEDTAVYYCNARLWGTHYEYARMYYWGQGTQVTVSS | low polyreactivity |
| QVQLVESGGGLVHAGGSLRLICAASGSIFQSYDMGWYRQAPGKERELVAAISWSGSTTYYADSVKGRFTISRDNAKNTVYLQMNSLKPEDTAVYYCAVDSNPPDWWAVIYGYWGQGTQVTVSS | low polyreactivity |
| QVQLVESGGGLVQAGGSLRLSSAASGITFPRYAMGWYRQAPGKERELVAAITRRGGSTYYADSVKGRFTISRDNAKNTVYLQMNSLKPEDTAVYYCNTDMRYSYYLPGYDYWGQGTQVTVSS | high polyreactivity |
| QVQLVESGGGLVQGGGSLRLSCAASGRIGKYAMGWYRQAPGKERELVATISSTGTTNYADSVKGRFTISRDNAKNTVYLQMNSLKPEDTAVYYCAARWEYVGYRRRYYRFDYWGQGTQVTVSS | high polyreactivity |
| QVQLVESGGGLVQSGGSLRLTCAASGTLFYAMGWSRQAPGKERELVATITQRGGSTYYADSVKGRFTLSRDNAKNTVYLQMNSLKPEDTAVYYCAAAIYRASRRRTSYSYDYCGQGTQVTVSS | high polyreactivity |
| QVQLVESGGGLVQAGGSLRISCAASGFIFRYNAMGWYRQAPGKERELVAAINSGDSTNYADSVKGRFTISRDNAKNTVYLQMNSLKPEDTAVYYYWGQGTQVTVSS | low polyreactivity |
| QVQHVESGGGLVQAGGSLRLSCAASGRTFPPYDMGWYRQAPGKERELVAAITSDGSTSYADSVKGRFTISRDNAKNTVYLQMNSLKPEDTAVYYCAAYRWYSAARMGYWGQGTQVTVSS | high polyreactivity |
| QVQLVESGGGLVQAGGSLRLSCAASGSTFYYYAMGWYRQAPGKEREFVAAISSSTGSTYYADSVKGRFTISRDNAKNTVYLQMNSLKPEDTAVYYCNALTWYTSQDYDYWGQGTQVTVSS | high polyreactivity |
| QVQLVESGGGLVQAGGSLRLSCAASGSTIGYYAMGWYRPAPGKERELVAAISWSGGSTYYADSVKGRFTISRDTAKNTVYFQMNSLKPEDTAGYYCAADTYPDYYLVEYYYWGQGTQVTVSS | low polyreactivity |
| QVQLVESCGGLVQAGGSLRLSCAASGSTFYLNAMGWYRQAPGKERELVAAIDYRGGSTYYADSVKGRFTISRDYAKNTVYLQMNSLKPEDTAVYYCAKDRPGFLVGWGGGYDYWGQGTQVTVSS | low polyreactivity |
| QVQLVESGGGLVQAGGSLRLSCADSGFSIWWYDMGWYRQAPGKERELVAAITADGGDTYYADSVKGRFTISRDYANHTDYLQMNSLKPEDTAVYYCAAEYDVYGYYYWGQGTQVTVSS | high polyreactivity |
| QVQLVESGGGLVQAGGSLRLSCAASGYTIYQYAMGWYRQAPRKERELVAAISSDASTSYADSVKGRFTISRDNAKNTVYLQMNSLKPEDTAVYYCAADPGPYYDWGYDYWGQGTQVTVSS | low polyreactivity |
| QVQLVESGGRLVQAGGSLRLSCAASGSIFAVNTMGWYRQAPGKERELVAAISQRGSSTYYADSVKGRFTISRDNAKNTVYLQMNSLKPEDTAVYYCAKRFIYGRYNYWGQGTQVTVSS | high polyreactivity |
